The RNAGym collection of RNA variant scans (doi:10.1021/acssynbio.7b00057)

B1: Pistol ribozyme (parent)
chain: GGGUCGUUGUUCCAUAAUCGCGUGGAUAUGGCACGCAAGUUUCUACCGGGCACCGUAAAUGUCCGACUGGAGCCGUUCGGGCGGCUAUAAACAGACCUCAGGCCCGAAGCGUGGCGGCACCUGCCGCCGGUGGUAAAAAAGAUCGGAAGAGCACACGUCU

Variants of: B1
Assay: aptazyme ON/OFF ratio, guanine; higher = stronger switching; co-transcriptional cleavage with and without guanine

Variant	aptazyme ON/OFF ratio
GGGUCGUACUACUAUAAUCGCGUGGAUAUGGCACGCAAGUUUCUACCGGGCACCGUAAAUGUCCGACUGGAGCCGUUCGGGCGGCUAUAAACAGACCUCAGGCCCGAAGCGUGGCGGCACCUGCCGCCGGUGGUAAAAAAGAUCGGAAGAGCACACGUCU [U8A G9C U11A C13U]	1.16
GGGUCGUACUCGUAUAAUCGCGUGGAUAUGGCACGCAAGUUUCUACCGGGCACCGUAAAUGUCCGACUGGAGCCGUUCGGGCGGCUAUAAACAGACCUCAGGCCCGAAGCGUGGCGGCACCUGCCGCCGGUGGUAAAAAAGAUCGGAAGAGCACACGUCU [U8A G9C U11C C12G C13U]	1.06
GGGUCGUACUCGAAUAAUCGCGUGGAUAUGGCACGCAAGUUUCUACCGGGCACCGUAAAUGUCCGACUGGAGCCGUUCGGGCGGCUAUAAACAGACCUCAGGCCCGAAGCGUGGCGGCACCUGCCGCCGGUGGUAAAAAAGAUCGGAAGAGCACACGUCU [U8A G9C U11C C12G C13A]	1.07
GGGUCGUACUCGGAUAAUCGCGUGGAUAUGGCACGCAAGUUUCUACCGGGCACCGUAAAUGUCCGACUGGAGCCGUUCGGGCGGCUAUAAACAGACCUCAGGCCCGAAGCGUGGCGGCACCUGCCGCCGGUGGUAAAAAAGAUCGGAAGAGCACACGUCU [U8A G9C U11C C12G C13G]	1.05
GGGUCGUACUGCCAUAAUCGCGUGGAUAUGGCACGCAAGUUUCUACCGGGCACCGUAAAUGUCCGACUGGAGCCGUUCGGGCGGCUAUAAACAGACCUCAGGCCCGAAGCGUGGCGGCACCUGCCGCCGGUGGUAAAAAAGAUCGGAAGAGCACACGUCU [U8A G9C U11G]	1.25
GGGUCGUACUCCCAUAAUCGCGUGGAUAUGGCACGCAAGUUUCUACCGGGCACCGUAAAUGUCCGACUGGAGCCGUUCGGGCGGCUAUAAACAGACCUCAGGCCCGAAGCGUGGCGGCACCUGCCGCCGGUGGUAAAAAAGAUCGGAAGAGCACACGUCU [U8A G9C U11C]	1.03
GGGUCGUACUCAAAUAAUCGCGUGGAUAUGGCACGCAAGUUUCUACCGGGCACCGUAAAUGUCCGACUGGAGCCGUUCGGGCGGCUAUAAACAGACCUCAGGCCCGAAGCGUGGCGGCACCUGCCGCCGGUGGUAAAAAAGAUCGGAAGAGCACACGUCU [U8A G9C U11C C12A C13A]	1.07
GGGUCGUACUCAGAUAAUCGCGUGGAUAUGGCACGCAAGUUUCUACCGGGCACCGUAAAUGUCCGACUGGAGCCGUUCGGGCGGCUAUAAACAGACCUCAGGCCCGAAGCGUGGCGGCACCUGCCGCCGGUGGUAAAAAAGAUCGGAAGAGCACACGUCU [U8A G9C U11C C12A C13G]	1.05
GGGUCGUACUCAUAUAAUCGCGUGGAUAUGGCACGCAAGUUUCUACCGGGCACCGUAAAUGUCCGACUGGAGCCGUUCGGGCGGCUAUAAACAGACCUCAGGCCCGAAGCGUGGCGGCACCUGCCGCCGGUGGUAAAAAAGAUCGGAAGAGCACACGUCU [U8A G9C U11C C12A C13U]	1.06
GGGUCGUACUCCGAUAAUCGCGUGGAUAUGGCACGCAAGUUUCUACCGGGCACCGUAAAUGUCCGACUGGAGCCGUUCGGGCGGCUAUAAACAGACCUCAGGCCCGAAGCGUGGCGGCACCUGCCGCCGGUGGUAAAAAAGAUCGGAAGAGCACACGUCU [U8A G9C U11C C13G]	1.04
GGGUCGUACUCCAAUAAUCGCGUGGAUAUGGCACGCAAGUUUCUACCGGGCACCGUAAAUGUCCGACUGGAGCCGUUCGGGCGGCUAUAAACAGACCUCAGGCCCGAAGCGUGGCGGCACCUGCCGCCGGUGGUAAAAAAGAUCGGAAGAGCACACGUCU [U8A G9C U11C C13A]	1.06
GGGUCGUACUCCUAUAAUCGCGUGGAUAUGGCACGCAAGUUUCUACCGGGCACCGUAAAUGUCCGACUGGAGCCGUUCGGGCGGCUAUAAACAGACCUCAGGCCCGAAGCGUGGCGGCACCUGCCGCCGGUGGUAAAAAAGAUCGGAAGAGCACACGUCU [U8A G9C U11C C13U]	1.06
GGGUCGUACUCUCAUAAUCGCGUGGAUAUGGCACGCAAGUUUCUACCGGGCACCGUAAAUGUCCGACUGGAGCCGUUCGGGCGGCUAUAAACAGACCUCAGGCCCGAAGCGUGGCGGCACCUGCCGCCGGUGGUAAAAAAGAUCGGAAGAGCACACGUCU [U8A G9C U11C C12U]	1.09
GGGUCGUACUCACAUAAUCGCGUGGAUAUGGCACGCAAGUUUCUACCGGGCACCGUAAAUGUCCGACUGGAGCCGUUCGGGCGGCUAUAAACAGACCUCAGGCCCGAAGCGUGGCGGCACCUGCCGCCGGUGGUAAAAAAGAUCGGAAGAGCACACGUCU [U8A G9C U11C C12A]	1.08
GGGUCGUACUCGCAUAAUCGCGUGGAUAUGGCACGCAAGUUUCUACCGGGCACCGUAAAUGUCCGACUGGAGCCGUUCGGGCGGCUAUAAACAGACCUCAGGCCCGAAGCGUGGCGGCACCUGCCGCCGGUGGUAAAAAAGAUCGGAAGAGCACACGUCU [U8A G9C U11C C12G]	1.07
GGGUCGUACUCUGAUAAUCGCGUGGAUAUGGCACGCAAGUUUCUACCGGGCACCGUAAAUGUCCGACUGGAGCCGUUCGGGCGGCUAUAAACAGACCUCAGGCCCGAAGCGUGGCGGCACCUGCCGCCGGUGGUAAAAAAGAUCGGAAGAGCACACGUCU [U8A G9C U11C C12U C13G]	1.04
GGGUCGUACUCUUAUAAUCGCGUGGAUAUGGCACGCAAGUUUCUACCGGGCACCGUAAAUGUCCGACUGGAGCCGUUCGGGCGGCUAUAAACAGACCUCAGGCCCGAAGCGUGGCGGCACCUGCCGCCGGUGGUAAAAAAGAUCGGAAGAGCACACGUCU [U8A G9C U11C C12U C13U]	1.01
GGGUCGUACUCUAAUAAUCGCGUGGAUAUGGCACGCAAGUUUCUACCGGGCACCGUAAAUGUCCGACUGGAGCCGUUCGGGCGGCUAUAAACAGACCUCAGGCCCGAAGCGUGGCGGCACCUGCCGCCGGUGGUAAAAAAGAUCGGAAGAGCACACGUCU [U8A G9C U11C C12U C13A]	1.05
